One molecule from PMC8571288 (Nature Communications, 2021) can be followed below.

The target in experiment [1] is T1, human CST complex (Flag-CTC1-STN1-TEN1-His6) (human, UniProt Q2NKJ3 1-1217; Q9H668 1-368; Q86WV5 1-123).
T1 construct: CTC1, human, subunit of the CST complex; STN1, human, subunit of the CST complex; TEN1, human, subunit of the CST complex; also called wild-type CST; not shown: Flag, N-terminal, kept; His6, C-terminal, kept; copies: + +
Description: pull-down; 1 μM CST or CTC1Δ700N-ST (His6 on TEN1) with 1 μM RAD51, RecA or RPA, 20 min 37 °C, buffer D (35 mM Tris-HCl pH 7.5, 10% glycerol, 0.01% Igepal, 1 mM 2-mercaptoethanol) with 5 mM imidazole and 50 mM KCl; for RPA without DNA or with 2 μM 30-nt ssDNA; captured on His-Tag Dynabeads; SDS-PAGE, Coomassie. Particulars: both partners purified.

The target of experiment [2] is T2, CTC1Δ700N-ST complex (CTC1 lacking its N-terminal 700 residues, with STN1 and TEN1-His6) (human, UniProt Q2NKJ3 701-1217; Q9H668 1-368; Q86WV5 1-123).
T2 construct: CTC1, human, with the N-terminal 700 residues removed (CTC1Δ700N); STN1, human, subunit of the CST complex; TEN1, human, subunit of the CST complex; also called CTC1∆700N-ST; not shown: His6, C-terminal, kept; copies: + +
T2 sequence (looked up) 1: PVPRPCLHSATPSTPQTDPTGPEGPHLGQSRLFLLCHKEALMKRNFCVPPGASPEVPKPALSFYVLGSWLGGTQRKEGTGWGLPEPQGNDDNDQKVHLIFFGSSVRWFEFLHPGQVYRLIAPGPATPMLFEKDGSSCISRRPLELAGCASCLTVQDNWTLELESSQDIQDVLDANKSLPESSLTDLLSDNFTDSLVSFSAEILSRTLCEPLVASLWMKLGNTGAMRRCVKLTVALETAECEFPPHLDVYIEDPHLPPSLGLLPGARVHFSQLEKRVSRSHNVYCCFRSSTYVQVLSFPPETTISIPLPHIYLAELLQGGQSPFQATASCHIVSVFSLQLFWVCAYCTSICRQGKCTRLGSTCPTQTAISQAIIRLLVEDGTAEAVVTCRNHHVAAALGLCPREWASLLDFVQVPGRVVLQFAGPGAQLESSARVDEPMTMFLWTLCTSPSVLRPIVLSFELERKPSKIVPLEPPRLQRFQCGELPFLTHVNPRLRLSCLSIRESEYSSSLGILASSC
T2 sequence (looked up) 2: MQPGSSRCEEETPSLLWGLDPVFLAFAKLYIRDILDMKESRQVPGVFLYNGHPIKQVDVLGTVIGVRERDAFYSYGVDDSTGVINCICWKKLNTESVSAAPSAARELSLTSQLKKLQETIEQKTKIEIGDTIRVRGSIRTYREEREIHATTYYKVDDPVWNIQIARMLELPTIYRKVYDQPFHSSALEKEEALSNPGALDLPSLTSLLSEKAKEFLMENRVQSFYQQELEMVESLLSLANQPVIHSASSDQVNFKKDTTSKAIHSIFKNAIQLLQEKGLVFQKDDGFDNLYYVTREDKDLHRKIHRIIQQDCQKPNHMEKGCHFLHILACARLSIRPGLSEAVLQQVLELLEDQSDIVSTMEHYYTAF
T2 sequence (looked up) 3: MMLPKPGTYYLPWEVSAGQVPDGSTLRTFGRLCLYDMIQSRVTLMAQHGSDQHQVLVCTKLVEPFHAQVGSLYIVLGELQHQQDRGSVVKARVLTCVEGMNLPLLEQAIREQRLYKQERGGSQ
The experiment is described as above. As to conditions: both partners purified.

B1: human RAD51 (natural protein, UniProt Q06609 1-339, looked up)
chain: MAMQMQLEANADTSVEEESFGPQPISRLEQCGINANDVKKLEEAGFHTVEAVAYAPKKELINIKGISEAKADKILAEAAKLVPMGFTTATEFHQRRSEIIQITTGSKELDKLLQGGIETGSITEMFGEFRTGKTQICHTLAVTCQLPIDRGGGEGKAMYIDTEGTFRPERLLAVAERYGLSGSDVLDNVAYARAFNTDHQTQLLYQASAMMVESRYALLIVDSATALYRTDYSGRGELSARQMHLARFLRMLLRLADEFGVAVVITNQVVAQVDGAAMFAADPKKPIGGNIIAHASTTRLYLRKGRGETRICKIYDSPCLPEAEAMFAINADGVGDAKD
notes: RAD51 recombinase, human
As to B1, the binding result in experiment [1] and in experiment [2] was “binds” in each case.
